# B1: Tuftelin-interacting protein 11 (Homo sapiens), Q9UBB9 (parent)
# chain: MSLSHLYRDGEGRIDDDDDERENFEITDWDLQNEFNPNRQRHWQTKEEATYGVWAERDSDDERPSFGGKRARDYSAPVNFISAGLKKGAAEEAELEDSDDEEKPVKQDDFPKDFGPRKLKTGGNFKPSQKGFAGGTKSFMDFGSWERHTKGIGQKLLQKMGYVPGRGLGKNAQGIINPIEAKQRKGKGAVGAYGSERTTQSMQDFPVVDSEEEAEEEFQKELSQWRKDPSGSKKKPKYSYKTVEELKAKGRISKKLTAPQKELSQVKVIDMTGREQKVYYSYSQISHKHNVPDDGLPLQSQQLPQSGKEAKAPGFALPELEHNLQLLIDLTEQEIIQNDRQLQYERDMVVNLFHELEKMTEVLDHEERVISNLSKVLEMVEECERRMQPDCSNPLTLDECARIFETLQDKYYEEYRMSDRVDLAVAIVYPLMKEYFKEWDPLKDCTYGTEIISKWKSLLENDQLLSHGGQDLSADAFHRLIWEVWMPFVRNIVTQWQPRNCDPMVDFLDSWVHIIPVWILDNILDQLIFPKLQKEVENWNPLTDTVPIHSWIHPWLPLMQARLEPLYSPIRSKLSSALQKWHPSDSSAKLILQPWKDVFTPGSWEAFMVKNIVPKLGMCLGELVINPHQQHMDAFYWVIDWEGMISVSSLVGLLEKHFFPKWLQVLCSWLSNSPNYEEITKWYLGWKSMFSDQVLAHPSVKDKFNEALDIMNRAVSSNVGAYMQPGARENIAYLTHTERRKDFQYEAMQERREAENMAQRGIGVAASSVPMNFKDLIETKAEEHNIVFMPVIGKRHEGKQLYTFGRIVIYIDRGVVFVQGEKTWVPTSLQSLIDMAK
# Variants of: B1
# Conditions: with zmat2_human ZMAT2, Q96NC0
# Sequence of zmat2_human ZMAT2, Q96NC0 (Q96NC0 whole entry): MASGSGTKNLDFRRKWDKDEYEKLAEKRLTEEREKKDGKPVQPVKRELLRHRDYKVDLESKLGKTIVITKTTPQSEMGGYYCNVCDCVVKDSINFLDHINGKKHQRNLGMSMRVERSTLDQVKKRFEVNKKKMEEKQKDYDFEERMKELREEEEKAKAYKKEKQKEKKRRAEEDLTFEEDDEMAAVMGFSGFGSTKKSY
row,Variant,effect of a mutation on the interaction
1,R8Q,with no effect

# Variants of: B1
# Conditions: with cox5b_human COX5B
row,Variant,effect of a mutation on the interaction
1,R8Q,with no effect

# Variants of: B1
# Conditions: with txlna_human TXLNA
row,Variant,effect of a mutation on the interaction
1,R8Q,with no effect

# Variants of: B1
# Conditions: with hook1_human HOOK1, Q9UJC3
# Sequence of hook1_human HOOK1, Q9UJC3 (Q9UJC3 whole entry): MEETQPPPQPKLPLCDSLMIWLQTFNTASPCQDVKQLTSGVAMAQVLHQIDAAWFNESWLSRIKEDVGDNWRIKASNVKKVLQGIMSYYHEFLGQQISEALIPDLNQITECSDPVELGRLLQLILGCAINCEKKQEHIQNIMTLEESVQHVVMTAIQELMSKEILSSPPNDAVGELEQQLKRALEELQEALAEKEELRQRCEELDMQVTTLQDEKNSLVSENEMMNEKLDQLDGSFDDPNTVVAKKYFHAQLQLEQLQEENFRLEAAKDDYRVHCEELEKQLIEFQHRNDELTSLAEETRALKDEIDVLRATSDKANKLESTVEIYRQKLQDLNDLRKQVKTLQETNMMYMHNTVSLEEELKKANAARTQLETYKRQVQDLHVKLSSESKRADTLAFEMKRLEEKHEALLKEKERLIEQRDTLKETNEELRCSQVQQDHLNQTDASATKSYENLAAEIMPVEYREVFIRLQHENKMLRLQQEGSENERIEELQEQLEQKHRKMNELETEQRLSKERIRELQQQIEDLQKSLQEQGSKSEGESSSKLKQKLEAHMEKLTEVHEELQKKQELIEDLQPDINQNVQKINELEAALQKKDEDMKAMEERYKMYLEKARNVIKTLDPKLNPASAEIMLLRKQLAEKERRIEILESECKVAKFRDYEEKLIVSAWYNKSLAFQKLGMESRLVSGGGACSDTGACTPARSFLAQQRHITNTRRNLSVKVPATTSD
row,Variant,effect of a mutation on the interaction
1,R8Q,with no effect

# Variants of: B1
# Conditions: with tnnt1_human TNNT1, P13805
# Sequence of tnnt1_human TNNT1, P13805 (P13805 whole entry): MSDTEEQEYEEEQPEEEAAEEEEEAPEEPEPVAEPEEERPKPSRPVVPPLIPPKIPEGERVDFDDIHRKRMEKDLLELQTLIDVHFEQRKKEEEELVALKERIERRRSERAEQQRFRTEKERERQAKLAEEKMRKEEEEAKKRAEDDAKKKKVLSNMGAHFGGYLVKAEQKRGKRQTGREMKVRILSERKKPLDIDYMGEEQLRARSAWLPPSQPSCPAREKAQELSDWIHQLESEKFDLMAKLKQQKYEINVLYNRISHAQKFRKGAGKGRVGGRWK
row,Variant,effect of a mutation on the interaction
1,R8Q,with no effect

# Variants of: B1
# Conditions: with coq8a_human COQ8A
row,Variant,effect of a mutation on the interaction
1,R8Q,with no effect

# Variants of: B1
# Conditions: with smce1_human SMARCE1, Q969G3
# Sequence of smce1_human SMARCE1, Q969G3 (Q969G3 whole entry): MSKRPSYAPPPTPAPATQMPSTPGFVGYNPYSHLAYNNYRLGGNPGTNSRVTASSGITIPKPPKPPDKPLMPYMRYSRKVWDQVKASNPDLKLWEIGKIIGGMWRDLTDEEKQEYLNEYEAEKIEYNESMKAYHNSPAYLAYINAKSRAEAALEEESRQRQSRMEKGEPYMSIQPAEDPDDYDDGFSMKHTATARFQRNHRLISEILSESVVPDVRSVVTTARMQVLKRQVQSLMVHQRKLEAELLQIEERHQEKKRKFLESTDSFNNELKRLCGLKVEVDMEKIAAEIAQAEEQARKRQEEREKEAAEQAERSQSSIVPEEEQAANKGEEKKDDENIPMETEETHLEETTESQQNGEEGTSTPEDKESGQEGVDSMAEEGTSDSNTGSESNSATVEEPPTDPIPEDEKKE
row,Variant,effect of a mutation on the interaction
1,R8Q,with no effect

# Variants of: B1
# Conditions: with bmf_human BMF
row,Variant,effect of a mutation on the interaction
1,R8Q,with no effect

# Variants of: B1
# Conditions: with fa13c_human FAM13C
row,Variant,effect of a mutation on the interaction
1,R8Q,with no effect

# Variants of: B1
# Conditions: with prp31_human PRPF31, Q8WWY3
# Sequence of prp31_human PRPF31, Q8WWY3 (Q8WWY3 whole entry): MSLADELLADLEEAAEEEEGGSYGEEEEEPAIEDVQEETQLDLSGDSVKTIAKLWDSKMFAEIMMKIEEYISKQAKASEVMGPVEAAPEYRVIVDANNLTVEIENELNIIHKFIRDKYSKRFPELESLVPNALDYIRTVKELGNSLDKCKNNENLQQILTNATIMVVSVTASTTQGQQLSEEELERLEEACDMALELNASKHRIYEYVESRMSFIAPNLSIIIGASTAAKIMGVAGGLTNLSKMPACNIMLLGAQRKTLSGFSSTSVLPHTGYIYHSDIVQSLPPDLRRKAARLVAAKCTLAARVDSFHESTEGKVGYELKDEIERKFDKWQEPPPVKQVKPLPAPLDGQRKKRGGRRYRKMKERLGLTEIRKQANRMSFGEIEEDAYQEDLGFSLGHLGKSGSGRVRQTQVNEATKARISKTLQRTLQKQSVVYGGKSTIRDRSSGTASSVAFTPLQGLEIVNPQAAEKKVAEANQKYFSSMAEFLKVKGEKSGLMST
row,Variant,effect of a mutation on the interaction
1,R8Q,with no effect

# Variants of: B1
# Conditions: with snw1_human SNW1, Q13573
# Sequence of snw1_human SNW1, Q13573 (Q13573 whole entry): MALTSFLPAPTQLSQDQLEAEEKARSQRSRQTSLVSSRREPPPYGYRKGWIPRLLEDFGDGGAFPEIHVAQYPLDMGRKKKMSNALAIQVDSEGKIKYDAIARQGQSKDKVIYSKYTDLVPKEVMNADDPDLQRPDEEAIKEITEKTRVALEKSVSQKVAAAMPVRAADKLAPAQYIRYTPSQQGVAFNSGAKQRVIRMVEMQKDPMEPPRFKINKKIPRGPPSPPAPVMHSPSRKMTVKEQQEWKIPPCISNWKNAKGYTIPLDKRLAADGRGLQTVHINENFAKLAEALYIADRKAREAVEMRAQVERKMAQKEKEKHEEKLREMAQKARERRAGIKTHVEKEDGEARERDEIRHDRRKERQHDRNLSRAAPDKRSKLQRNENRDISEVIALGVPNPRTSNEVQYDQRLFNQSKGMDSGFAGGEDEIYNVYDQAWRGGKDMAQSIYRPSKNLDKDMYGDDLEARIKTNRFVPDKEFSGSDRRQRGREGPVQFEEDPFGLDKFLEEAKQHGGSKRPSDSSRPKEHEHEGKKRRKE
row,Variant,effect of a mutation on the interaction
1,R8Q,with no effect

# Variants of: B1
# Conditions: with sfr1_human SFR1, Q86XK3
# Sequence of sfr1_human SFR1, Q86XK3 (Q86XK3 whole entry): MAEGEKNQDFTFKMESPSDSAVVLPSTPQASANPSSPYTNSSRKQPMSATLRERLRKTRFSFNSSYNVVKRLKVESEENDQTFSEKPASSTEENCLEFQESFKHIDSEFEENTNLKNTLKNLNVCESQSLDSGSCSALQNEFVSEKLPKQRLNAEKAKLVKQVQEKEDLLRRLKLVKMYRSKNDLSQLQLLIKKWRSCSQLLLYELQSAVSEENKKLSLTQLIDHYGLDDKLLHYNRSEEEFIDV
row,Variant,effect of a mutation on the interaction
1,R8Q,with no effect

# Variants of: B1
# Conditions: with zfy26_human ZFYVE26, Q68DK2
row,Variant,effect of a mutation on the interaction
1,R8Q,with no effect

# Variants of: B1
# Conditions: with abi2_human ABI2, Q9NYB9
# Sequence of abi2_human ABI2, Q9NYB9 (Q9NYB9 whole entry): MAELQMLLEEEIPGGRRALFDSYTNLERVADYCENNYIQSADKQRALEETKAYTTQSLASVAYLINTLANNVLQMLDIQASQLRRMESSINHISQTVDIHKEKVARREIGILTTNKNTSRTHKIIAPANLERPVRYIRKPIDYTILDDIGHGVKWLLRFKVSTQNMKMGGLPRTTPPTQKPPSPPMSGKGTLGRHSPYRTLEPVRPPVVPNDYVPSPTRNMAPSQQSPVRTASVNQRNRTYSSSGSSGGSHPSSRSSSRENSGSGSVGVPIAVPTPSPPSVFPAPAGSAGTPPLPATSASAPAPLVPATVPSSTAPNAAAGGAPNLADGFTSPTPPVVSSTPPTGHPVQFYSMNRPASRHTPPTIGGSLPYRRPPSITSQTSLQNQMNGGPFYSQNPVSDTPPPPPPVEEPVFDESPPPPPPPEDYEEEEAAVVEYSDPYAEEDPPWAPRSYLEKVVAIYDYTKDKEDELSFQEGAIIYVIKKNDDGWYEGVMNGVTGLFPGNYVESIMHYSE
row,Variant,effect of a mutation on the interaction
1,R8Q,with no effect

# Variants of: B1
# Conditions: with cc121_human CCDC121, Q6ZUS5
# Sequence of cc121_human CCDC121, Q6ZUS5 (Q6ZUS5 whole entry): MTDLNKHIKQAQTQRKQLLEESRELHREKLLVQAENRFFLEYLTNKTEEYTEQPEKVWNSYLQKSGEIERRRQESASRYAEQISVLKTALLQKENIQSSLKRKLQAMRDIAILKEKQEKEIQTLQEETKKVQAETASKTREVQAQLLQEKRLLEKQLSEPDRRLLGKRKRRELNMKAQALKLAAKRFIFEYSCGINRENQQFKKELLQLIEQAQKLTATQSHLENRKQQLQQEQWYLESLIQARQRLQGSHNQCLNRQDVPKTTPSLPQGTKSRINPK
row,Variant,effect of a mutation on the interaction
1,R8Q,with no effect

# Variants of: B1
# Conditions: with KRT6A
row,Variant,effect of a mutation on the interaction
1,R8Q,with no effect

# Reference: IntAct's records for PubMed 31515488
